Laboratory results published in the supplement of paper PMC11908140.

B1: library; numbered along this chain (parent)
chain: MRKPRAAVGSGHRKQAASQEGRQKHAKNNSQAKPSACDGLARQPEEVVLQASVSSYHLFRDVAEVTAFRGSLLSWYDQEKRDLPWRRRAEDEMDLDRRAYAVWVSEVMLQQTQVATVINYYTGWMQKWPTLQDLASASLEEVNQLWAGLGYYSRGRRLQEGARKVVEELGGHMPRTAETLQQLLPGVGRYTAGAIASIAFGQATGVVDGNVARVLCRVRAIGADPSSTLVSQQLWGLAQQLVDPARPGDFNQAAMELGATVCTPQRPLCSQCPVESLCRARQRVEQEQLLASGSLSGSPDVEECAPNTGQCHLCLPPSEPWDQTLGVVNFPRKASRKPPREESSATCVLEQPGALGAQILLVQRPNSGLLAGLWEFPSVTWEPSEQLQRKALLQELQRWAGPLPATHLRHLGEVVHTFSHIKLTYQVYGLALEGQTPVTTVPPGARWLTQEEFHTAAVSTAMKKVFRVYQGQQPGTCMGSKRSQVSSPCSRKKPRMGQQVLDNFFRSHISTDAHSLNSAAQ

Variants of: B1
Assay: 8OG:A repair function score (normalized; synonymous = 0, nonsense = -1) (normalized log-likelihood score); higher = more repair activity (WT-like)
Conditions: with 8OG:A DNA repair reporter (GFP) in HEK-293 MUTYH KO cells
Protocol: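 Saturation mutagenesis (NNN codon scan) of the MUTYH cDNA (521-aa nuclear isoform NM_001048174.1 / NP_001041639), stably expressed under doxycycline induction in HEK-293 MUTYH knockout cells. Cells were co-transfected with an 8OG:A-bearing GFP repair reporter plus mCherry and sorted 72 h later into GFP+ and GFP− bins, three replicates per tile. The Rosace log2 enrichment (GFP+ vs GFP−) was converted per tile to a normalized function score with synonymous variants centered at 0 and nonsense variants (codons 1-471) at -1; low-abundance variants were removed.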

Row | Variant | 8OG:A repair function score
1 | MRKPRAAVGSGHRKQAASQEGRQKHAKNNSQAKPSACDGLARQPEEVVLQASVSSYHLFRDVAEVTAFRGSLLSWYDQEKRDLPWRRRAEDEMDLDARAYAVWVSEVMLQQTQVATVINYYTGWMQKWPTLQDLASASLEEVNQLWAGLGYYSRGRRLQEGARKVVEELGGHMPRTAETLQQLLPGVGRYTAGAIASIAFGQATGVVDGNVARVLCRVRAIGADPSSTLVSQQLWGLAQQLVDPARPGDFNQAAMELGATVCTPQRPLCSQCPVESLCRARQRVEQEQLLASGSLSGSPDVEECAPNTGQCHLCLPPSEPWDQTLGVVNFPRKASRKPPREESSATCVLEQPGALGAQILLVQRPNSGLLAGLWEFPSVTWEPSEQLQRKALLQELQRWAGPLPATHLRHLGEVVHTFSHIKLTYQVYGLALEGQTPVTTVPPGARWLTQEEFHTAAVSTAMKKVFRVYQGQQPGTCMGSKRSQVSSPCSRKKPRMGQQVLDNFFRSHISTDAHSLNSAAQ [R97A] | 0.00655
2 | MRKPRAAVGSGHRKQAASQEGRQKHAKNNSQAKPSACDGLARQPEEVVLQASVSSYHLFRDVAEVTAFRGSLLSWYDQEKRDLPWRRRAEDEMDLMRRAYAVWVSEVMLQQTQVATVINYYTGWMQKWPTLQDLASASLEEVNQLWAGLGYYSRGRRLQEGARKVVEELGGHMPRTAETLQQLLPGVGRYTAGAIASIAFGQATGVVDGNVARVLCRVRAIGADPSSTLVSQQLWGLAQQLVDPARPGDFNQAAMELGATVCTPQRPLCSQCPVESLCRARQRVEQEQLLASGSLSGSPDVEECAPNTGQCHLCLPPSEPWDQTLGVVNFPRKASRKPPREESSATCVLEQPGALGAQILLVQRPNSGLLAGLWEFPSVTWEPSEQLQRKALLQELQRWAGPLPATHLRHLGEVVHTFSHIKLTYQVYGLALEGQTPVTTVPPGARWLTQEEFHTAAVSTAMKKVFRVYQGQQPGTCMGSKRSQVSSPCSRKKPRMGQQVLDNFFRSHISTDAHSLNSAAQ [D96M] | -0.441
3 | MRKPRAAVGSGHRKQAASQEGRQKHAKNNSQAKPSACDGLARQPEEVVLQASVSSYHLFRDVAEVTAFRGSLLSWYDQEKRDLPWRRRAEDEMDLTRRAYAVWVSEVMLQQTQVATVINYYTGWMQKWPTLQDLASASLEEVNQLWAGLGYYSRGRRLQEGARKVVEELGGHMPRTAETLQQLLPGVGRYTAGAIASIAFGQATGVVDGNVARVLCRVRAIGADPSSTLVSQQLWGLAQQLVDPARPGDFNQAAMELGATVCTPQRPLCSQCPVESLCRARQRVEQEQLLASGSLSGSPDVEECAPNTGQCHLCLPPSEPWDQTLGVVNFPRKASRKPPREESSATCVLEQPGALGAQILLVQRPNSGLLAGLWEFPSVTWEPSEQLQRKALLQELQRWAGPLPATHLRHLGEVVHTFSHIKLTYQVYGLALEGQTPVTTVPPGARWLTQEEFHTAAVSTAMKKVFRVYQGQQPGTCMGSKRSQVSSPCSRKKPRMGQQVLDNFFRSHISTDAHSLNSAAQ [D96T] | -1.12
4 | MRKPRAAVGSGHRKQAASQEGRQKHAKNNSQAKPSACDGLARQPEEVVLQASVSSYHLFRDVAEVTAFRGSLLSWYDQEKRDLPWRRRAEDEMDLYRRAYAVWVSEVMLQQTQVATVINYYTGWMQKWPTLQDLASASLEEVNQLWAGLGYYSRGRRLQEGARKVVEELGGHMPRTAETLQQLLPGVGRYTAGAIASIAFGQATGVVDGNVARVLCRVRAIGADPSSTLVSQQLWGLAQQLVDPARPGDFNQAAMELGATVCTPQRPLCSQCPVESLCRARQRVEQEQLLASGSLSGSPDVEECAPNTGQCHLCLPPSEPWDQTLGVVNFPRKASRKPPREESSATCVLEQPGALGAQILLVQRPNSGLLAGLWEFPSVTWEPSEQLQRKALLQELQRWAGPLPATHLRHLGEVVHTFSHIKLTYQVYGLALEGQTPVTTVPPGARWLTQEEFHTAAVSTAMKKVFRVYQGQQPGTCMGSKRSQVSSPCSRKKPRMGQQVLDNFFRSHISTDAHSLNSAAQ [D96Y] | -0.308
5 | MRKPRAAVGSGHRKQAASQEGRQKHAKNNSQAKPSACDGLARQPEEVVLQASVSSYHLFRDVAEVTAFRGSLLSWYDQEKRDLPWRRRAEDEMDLWRRAYAVWVSEVMLQQTQVATVINYYTGWMQKWPTLQDLASASLEEVNQLWAGLGYYSRGRRLQEGARKVVEELGGHMPRTAETLQQLLPGVGRYTAGAIASIAFGQATGVVDGNVARVLCRVRAIGADPSSTLVSQQLWGLAQQLVDPARPGDFNQAAMELGATVCTPQRPLCSQCPVESLCRARQRVEQEQLLASGSLSGSPDVEECAPNTGQCHLCLPPSEPWDQTLGVVNFPRKASRKPPREESSATCVLEQPGALGAQILLVQRPNSGLLAGLWEFPSVTWEPSEQLQRKALLQELQRWAGPLPATHLRHLGEVVHTFSHIKLTYQVYGLALEGQTPVTTVPPGARWLTQEEFHTAAVSTAMKKVFRVYQGQQPGTCMGSKRSQVSSPCSRKKPRMGQQVLDNFFRSHISTDAHSLNSAAQ [D96W] | -0.378
6 | MRKPRAAVGSGHRKQAASQEGRQKHAKNNSQAKPSACDGLARQPEEVVLQASVSSYHLFRDVAEVTAFRGSLLSWYDQEKRDLPWRRRAEDEMDLLRRAYAVWVSEVMLQQTQVATVINYYTGWMQKWPTLQDLASASLEEVNQLWAGLGYYSRGRRLQEGARKVVEELGGHMPRTAETLQQLLPGVGRYTAGAIASIAFGQATGVVDGNVARVLCRVRAIGADPSSTLVSQQLWGLAQQLVDPARPGDFNQAAMELGATVCTPQRPLCSQCPVESLCRARQRVEQEQLLASGSLSGSPDVEECAPNTGQCHLCLPPSEPWDQTLGVVNFPRKASRKPPREESSATCVLEQPGALGAQILLVQRPNSGLLAGLWEFPSVTWEPSEQLQRKALLQELQRWAGPLPATHLRHLGEVVHTFSHIKLTYQVYGLALEGQTPVTTVPPGARWLTQEEFHTAAVSTAMKKVFRVYQGQQPGTCMGSKRSQVSSPCSRKKPRMGQQVLDNFFRSHISTDAHSLNSAAQ [D96L] | -0.43
7 | MRKPRAAVGSGHRKQAASQEGRQKHAKNNSQAKPSACDGLARQPEEVVLQASVSSYHLFRDVAEVTAFRGSLLSWYDQEKRDLPWRRRAEDEMDLNRRAYAVWVSEVMLQQTQVATVINYYTGWMQKWPTLQDLASASLEEVNQLWAGLGYYSRGRRLQEGARKVVEELGGHMPRTAETLQQLLPGVGRYTAGAIASIAFGQATGVVDGNVARVLCRVRAIGADPSSTLVSQQLWGLAQQLVDPARPGDFNQAAMELGATVCTPQRPLCSQCPVESLCRARQRVEQEQLLASGSLSGSPDVEECAPNTGQCHLCLPPSEPWDQTLGVVNFPRKASRKPPREESSATCVLEQPGALGAQILLVQRPNSGLLAGLWEFPSVTWEPSEQLQRKALLQELQRWAGPLPATHLRHLGEVVHTFSHIKLTYQVYGLALEGQTPVTTVPPGARWLTQEEFHTAAVSTAMKKVFRVYQGQQPGTCMGSKRSQVSSPCSRKKPRMGQQVLDNFFRSHISTDAHSLNSAAQ [D96N] | -0.00561
8 | MRKPRAAVGSGHRKQAASQEGRQKHAKNNSQAKPSACDGLARQPEEVVLQASVSSYHLFRDVAEVTAFRGSLLSWYDQEKRDLPWRRRAEDEMDLRRRAYAVWVSEVMLQQTQVATVINYYTGWMQKWPTLQDLASASLEEVNQLWAGLGYYSRGRRLQEGARKVVEELGGHMPRTAETLQQLLPGVGRYTAGAIASIAFGQATGVVDGNVARVLCRVRAIGADPSSTLVSQQLWGLAQQLVDPARPGDFNQAAMELGATVCTPQRPLCSQCPVESLCRARQRVEQEQLLASGSLSGSPDVEECAPNTGQCHLCLPPSEPWDQTLGVVNFPRKASRKPPREESSATCVLEQPGALGAQILLVQRPNSGLLAGLWEFPSVTWEPSEQLQRKALLQELQRWAGPLPATHLRHLGEVVHTFSHIKLTYQVYGLALEGQTPVTTVPPGARWLTQEEFHTAAVSTAMKKVFRVYQGQQPGTCMGSKRSQVSSPCSRKKPRMGQQVLDNFFRSHISTDAHSLNSAAQ [D96R] | -0.506
9 | MRKPRAAVGSGHRKQAASQEGRQKHAKNNSQAKPSACDGLARQPEEVVLQASVSSYHLFRDVAEVTAFRGSLLSWYDQEKRDLPWRRRAEDEMDLQRRAYAVWVSEVMLQQTQVATVINYYTGWMQKWPTLQDLASASLEEVNQLWAGLGYYSRGRRLQEGARKVVEELGGHMPRTAETLQQLLPGVGRYTAGAIASIAFGQATGVVDGNVARVLCRVRAIGADPSSTLVSQQLWGLAQQLVDPARPGDFNQAAMELGATVCTPQRPLCSQCPVESLCRARQRVEQEQLLASGSLSGSPDVEECAPNTGQCHLCLPPSEPWDQTLGVVNFPRKASRKPPREESSATCVLEQPGALGAQILLVQRPNSGLLAGLWEFPSVTWEPSEQLQRKALLQELQRWAGPLPATHLRHLGEVVHTFSHIKLTYQVYGLALEGQTPVTTVPPGARWLTQEEFHTAAVSTAMKKVFRVYQGQQPGTCMGSKRSQVSSPCSRKKPRMGQQVLDNFFRSHISTDAHSLNSAAQ [D96Q] | -0.0411
10 | MRKPRAAVGSGHRKQAASQEGRQKHAKNNSQAKPSACDGLARQPEEVVLQASVSSYHLFRDVAEVTAFRGSLLSWYDQEKRDLPWRRRAEDEMDLPRRAYAVWVSEVMLQQTQVATVINYYTGWMQKWPTLQDLASASLEEVNQLWAGLGYYSRGRRLQEGARKVVEELGGHMPRTAETLQQLLPGVGRYTAGAIASIAFGQATGVVDGNVARVLCRVRAIGADPSSTLVSQQLWGLAQQLVDPARPGDFNQAAMELGATVCTPQRPLCSQCPVESLCRARQRVEQEQLLASGSLSGSPDVEECAPNTGQCHLCLPPSEPWDQTLGVVNFPRKASRKPPREESSATCVLEQPGALGAQILLVQRPNSGLLAGLWEFPSVTWEPSEQLQRKALLQELQRWAGPLPATHLRHLGEVVHTFSHIKLTYQVYGLALEGQTPVTTVPPGARWLTQEEFHTAAVSTAMKKVFRVYQGQQPGTCMGSKRSQVSSPCSRKKPRMGQQVLDNFFRSHISTDAHSLNSAAQ [D96P] | -0.177
11 | MRKPRAAVGSGHRKQAASQEGRQKHAKNNSQAKPSACDGLARQPEEVVLQASVSSYHLFRDVAEVTAFRGSLLSWYDQEKRDLPWRRRAEDEMDLVRRAYAVWVSEVMLQQTQVATVINYYTGWMQKWPTLQDLASASLEEVNQLWAGLGYYSRGRRLQEGARKVVEELGGHMPRTAETLQQLLPGVGRYTAGAIASIAFGQATGVVDGNVARVLCRVRAIGADPSSTLVSQQLWGLAQQLVDPARPGDFNQAAMELGATVCTPQRPLCSQCPVESLCRARQRVEQEQLLASGSLSGSPDVEECAPNTGQCHLCLPPSEPWDQTLGVVNFPRKASRKPPREESSATCVLEQPGALGAQILLVQRPNSGLLAGLWEFPSVTWEPSEQLQRKALLQELQRWAGPLPATHLRHLGEVVHTFSHIKLTYQVYGLALEGQTPVTTVPPGARWLTQEEFHTAAVSTAMKKVFRVYQGQQPGTCMGSKRSQVSSPCSRKKPRMGQQVLDNFFRSHISTDAHSLNSAAQ [D96V] | -0.431
12 | MRKPRAAVGSGHRKQAASQEGRQKHAKNNSQAKPSACDGLARQPEEVVLQASVSSYHLFRDVAEVTAFRGSLLSWYDQEKRDLPWRRRAEDEMDLSRRAYAVWVSEVMLQQTQVATVINYYTGWMQKWPTLQDLASASLEEVNQLWAGLGYYSRGRRLQEGARKVVEELGGHMPRTAETLQQLLPGVGRYTAGAIASIAFGQATGVVDGNVARVLCRVRAIGADPSSTLVSQQLWGLAQQLVDPARPGDFNQAAMELGATVCTPQRPLCSQCPVESLCRARQRVEQEQLLASGSLSGSPDVEECAPNTGQCHLCLPPSEPWDQTLGVVNFPRKASRKPPREESSATCVLEQPGALGAQILLVQRPNSGLLAGLWEFPSVTWEPSEQLQRKALLQELQRWAGPLPATHLRHLGEVVHTFSHIKLTYQVYGLALEGQTPVTTVPPGARWLTQEEFHTAAVSTAMKKVFRVYQGQQPGTCMGSKRSQVSSPCSRKKPRMGQQVLDNFFRSHISTDAHSLNSAAQ [D96S] | -0.15
